# Experimental data taken from US20250042970A1 (AURINIA PHARMACEUTICALS, published 2025).
# Ends that are not written are not given here. pIg22 = chimeric Ig-Fc consisting of the CH2 domain of PIg18 (IgG2 derivative) and the CH3 domain of IgG1
# T1: FLAG-tagged cynomolgous APRIL (cynomolgus monkey, UniProt A0ACM8R0G4 110-250 (rhesus entry))
# T1 construct: FLAG-tagged, expressed with TPA signal peptide; also called cyAPRIL
# T1 sequence: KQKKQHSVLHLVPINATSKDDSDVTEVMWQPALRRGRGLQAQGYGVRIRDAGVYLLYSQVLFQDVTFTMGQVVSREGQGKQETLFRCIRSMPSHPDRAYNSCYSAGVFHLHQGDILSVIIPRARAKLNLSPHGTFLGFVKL
# T2: FLAG-tagged recombinant human APRIL (human, UniProt O75888 105-250)
# T2 construct: KINEXA ligand; also called huAPRIL
# T2 sequence: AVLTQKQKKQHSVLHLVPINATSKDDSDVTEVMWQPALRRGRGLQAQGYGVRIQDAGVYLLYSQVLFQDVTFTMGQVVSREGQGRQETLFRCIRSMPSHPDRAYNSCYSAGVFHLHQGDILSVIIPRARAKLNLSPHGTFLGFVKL
# Key:
# [1] = target: T1, FLAG-tagged cynomolgous APRIL; experiment: BIACORE SPR; NB = No binding
# Description: (§1) For human BAFF, cynomolgus monkey APRIL, and mouse APRIL measurements, mouse monoclonal antibody (IgG1) anti-FLAG M2 (Sigma Aldrich, Cat. No. F1804) was immobilized on CM3 sensor chips (GE Healthcare, Cat. No. BR-1005-41) according to the manufacturer's protocol. Antibody was diluted to 30 μg/ml in immobilization buffer (10 mM pH 5±0.20; GE Healthcare; GE Healthcare, Catalog No. BR-1003-51). […] Unreacted sites were quenched with 35 μl of 1M ethanolamine-HCl, pH 8.5 (GE Healthcare, GE Healthcare, Cat. No. BR-1000-50). This procedure typically yielded 3,000-4,000 response units (RU) of coupled antibody.
# (§2) The fusion polypeptides were diluted in HBS-EP buffer and flowed over ligand-coated sensor chips. The variant BCMA-Ig and surrogate control fusion proteins were injected at three concentrations (1.5 nM, 15 nM, and 150 nM at 30 μl/min for 2 minutes per association phase) in a single binding cycle, followed by a 20 minute incubation with HBS-EP buffer containing no protein at the same flow rate. A similar protocol was followed for Z-TACI-Ig, except that the injections were at 4.5 nM, 45 nM, and 450 nM.
# Using available information from the structures and published literature, several residues in BAv8-10 were targeted for substitution with conserved as well as non-conserved residues and their effect on BAFF and APRIL binding was assessed by BIACORE.
# FLAG-tagged human BAFF [2] = target: T3, FLAG-tagged human BAFF (human, UniProt Q9Y275 134-285, limits assumed); experiment: BIACORE SPR
# T3 construct: used in BIACORE (Ex. 9) and KINEXA (Ex. 11); also called huBAFF
# Description: as §1, §2
# (§3) The various fusion proteins described above were expressed and purified as described previously (Examples 2 and 3 for the CET1019AS based plasmids and Examples 7 and 8 for the pcDNA based plasmids). […] The BAv9-1-Ig Fc proteins typically exist in solution as a dimeric fusion protein. The purified fusion proteins were assayed for binding activity using BIACORE (Example 9) and KINEXA (Example 11) assays.
# [3] = target: T1, FLAG-tagged cynomolgous APRIL; experiment: BIACORE SPR
# Description: as §1, §2, §3
# FLAG-tagged human BAFF [4] = target: T3, FLAG-tagged human BAFF; experiment: KinExA
# Description: (§4) Equilibrium measurements were performed using FLAG-tagged, recombinant huBAFF and huAPRIL ligands. Fixed ligand concentrations of human BAFF or human APRIL were incubated with serial dilutions of the variant BCMA ECD-Ig fusion polypeptides, and free ligand was detected in a KINEXA 3200 Instrument. variant BCMA ECD-Ig fusion polypeptides were first diluted in equilibration buffer (1×PBS, pH 7.4, 1 mg/ml BSA) to a range of concentrations from 10 nM to 100 fM. The linear portion of the dilution series was typically 2-fold. Ligands were diluted in equilibration buffer to fixed concentrations ranging from 5 to 20 pM and then incubated with the variant BCMA-Ig dilutions in total reaction volumes ranging from 4.5 to 15 ml. Samples were incubated at room temperature for 48-72 hours to reach equilibrium. For each data point, a fresh column of 850 μl of bead slurry coated with Variant BAv-238475-Ig was introduced into the KINEXA flow cell. Equilibrated samples ranging from 1 to 5 ml reaction volume were injected at a flow rate of 0.25 ml/min. […] The DyLight 649 fluorescent signal was detected using the red filter set (620/30 nanometer excitation filter, 670/40 nanometer emission filter, 645 nanometer dichroic filter) on the KinExA instrument and converted to a voltage signal that was directly proportional to the concentration of free ligand in the equilibrated sample.
# (§5) The standard kinetic exclusion assays and data analyses described above were performed on protein preparations of various variant BCMA ECD-Ig fusion polypeptides, as well as Z-TACI-Ig and [S40G]huBCMA ECD-Ig fusion polypeptides. FIG. 8A, FIG. 8B, and Table 4 summarize the binding data for representative variant BCMA ECD-Ig polypeptides and controls in molar concentrations of huBAFF or huAPRIL determined by KINEXA binding assays.
# [5] = target: T2, FLAG-tagged recombinant human APRIL; experiment: KinExA
# Description: as §4, §5
# FLAG-tagged human BAFF [6] = target: T3, FLAG-tagged human BAFF; experiment: KinExA; remark: listed apart in the source
# Description: as §4
# (§6) Table 5 provides the selectivities of exemplary variant BCMA polypeptides with respect to BAFF and APRIL.
# [7] = target: T2, FLAG-tagged recombinant human APRIL; experiment: KinExA; remark: listed apart in the source
# Description: as §4, §6
# FLAG-tagged human BAFF [8] = target: T3, FLAG-tagged human BAFF; experiment: BIACORE SPR; remark: listed apart in the source
# Description: as §1, §2
# (§7) Sequence optimization involved generating revertants from the variant BCMA ECD-Ig molecules using standard site-directed mutagenesis methods such as by SOEing as described herein above. Single as well as multiple revertants from twelve different variant-BCMA-pIg18 were generated, cloned in the pcDNA3.1 vector (Life Technologies, as described in Example 6), expressed and purified as described in Examples 6-8. The resulting proteins were assayed for their binding characteristics using Surface Plasmon Resonance as described in Example 9.
# [9] = target: T1, FLAG-tagged cynomolgous APRIL; experiment: BIACORE SPR; remark: listed apart in the source
# Description: as §1, §2, §7
binding result [1],fold improvement over control (FLAG-tagged human BAFF [4]) [fold],fold improvement over control [5] [fold],Selectivity for huBAFF (KD APRIL/KD BAFF) (FLAG-tagged human BAFF [6]) [ratio],Selectivity for huAPRIL (KD BAFF/KD APRIL) [7] [ratio],Binder,further results
no binding (tested: 150 nM),–,–,–,–,"AGQCSQNEYFDHLGRACIPCQVRCSSNTPPLTCQRYCNAGVTNSVKGTNA (Fc fusion, not shown: PIg18: human IgG2 Fc, Ser at Fc positions 4, 5, 11 (native Cys)) [BAv55-Ig]",–
no binding (tested: 150 nM),–,–,–,–,"AGQCSQNEYFDHLYRACIPCQVRCSSNTPPLTCQRYCNAGVTNSVKGTNA (Fc fusion, not shown: PIg18: human IgG2 Fc, Ser at Fc positions 4, 5, 11 (native Cys)) [BAv64-Ig]",–
no binding (tested: 150 nM),–,–,–,–,"AGQCSQNEYFDPLVRACIPCQARCSSNTPPLTCQRYCNAGVTNSVKGTNA (Fc fusion, not shown: PIg18: human IgG2 Fc, Ser at Fc positions 4, 5, 11 (native Cys)) [BAv82-Ig]",–
no binding (tested: 150 nM),–,–,–,–,"AGQCSQNEYFDHLLRACIPCQYTCSSNTPPLTCQRYCNAGVTNSVKGTNA (Fc fusion, not shown: PIg18: human IgG2 Fc, Ser at Fc positions 4, 5, 11 (native Cys)) [BAv78-Ig]",–

# Second part, the binder before the results:
Binder,binding result [1],fold improvement over control (FLAG-tagged human BAFF [4]) [fold],fold improvement over control [5] [fold],Selectivity for huBAFF (KD APRIL/KD BAFF) (FLAG-tagged human BAFF [6]) [ratio],Selectivity for huAPRIL (KD BAFF/KD APRIL) [7] [ratio],further results
"AGQCSQNEYFDPLVRACIPCQIRCSSNTPPLTCQRYCNAGVTNSVGGGGS-pIg22 (Fc fusion, human, not fully specified; cysteine pairing not given here, domain: Fc; not shown: PIg22: chimeric Fc, CH2 domain of PIg18 (human IgG2 derivative) and CH3 domain of human IgG1) [BAv83-5L-pIg22]",–,–,–,–,–,Kd (FLAG-tagged human BAFF [2]): 8.61 pM; Kd [3]: 861 pM
"AGQCSQNEYFDSLIRHCIPCQVRCSSNTPPLTCQRYCNAGVTNSVKGTNA (Fc fusion, not shown: PIg18: human IgG2 Fc, Ser at Fc positions 4, 5, 11 (native Cys)) [BAv53-Ig]",–,488,0.00469,73.6,0.014,Kd (FLAG-tagged human BAFF [4]): 0.462 pM; Kd [5]: 34 pM
"AGQCSQNEYFDSLVRHCIPCQIRCSSNTPPLTCQRYCNAGVTNSVKGTNA (Fc fusion, not shown: PIg18: human IgG2 Fc, Ser at Fc positions 4, 5, 11 (native Cys)) [BAv58-Ig]",–,940,0.00514,129,0.008,Kd (FLAG-tagged human BAFF [4]): 0.24 pM; Kd [5]: 31 pM
"Variant 9-3-Ig (Fc fusion, human, domain: Fc; also called BAv9-3) AGQCSQNEYFDHLVRACIPCQVRCSSNTPPLTCQRYCNAGVTNSVKGTNAERKSSVECPPSPAPPVAGPSVFLFPPKPKDTLMISRTPEVTCVVVDVSHEDPEVQFNWYVDGVEVHNAKTKPREEQFNSTFRVVSVLTVVHQDWLNGKEYKCKVSNKGLPAPIEKTISKTKGQPREPQVYTLPPSREEMTKNQVSLTCLVKGFYPSDISVEWESNGQPENNYKTTPPMLDSDGSFFLYSKLTVDKSRWQQGNVFSCSVMHEALHNHYTQKSLSLSPGK",–,2660,0.008,221,0.005,–
"Variant 50234224-Ig (Fc fusion, human, domain: Fc; also called Parent 6) AGQCSQNDYYDHLLRACIPCQLRCSSNNPPLTCQRYCNAGVTNSVKGTNAERKSSVECPPSPAPPVAGPSVFLFPPKPKDTLMISRTPEVTCVVVDVSHEDPEVQFNWYVDGVEVHNAKTKPREEQFNSTFRVVSVLTVVHQDWLNGKEYKCKVSNKGLPAPIEKTISKTKGQPREPQVYTLPPSREEMTKNQVSLTCLVKGFYPSDISVEWESNGQPENNYKTTPPMLDSDGSFFLYSKLTVDKSRWQQGNVFSCSVMHEALHNHYTQKSLSLSPGK",–,–,–,–,–,fold improvement over control (FLAG-tagged human BAFF [8]): 4.2 fold; fold improvement over control [9]: 0.4 fold
